Tests used:
[1] = target: T1, ADD2 peptide KKKFRTPSFLKKSKK (SEQ ID NO:95) (not fully specified)
T1 chain: KKKFRTPSFLKKSKK

[2] = target: T2, ASIP peptide KKRSSKKEASMKKVVRP (SEQ ID NO:97) (not fully specified)
T2 chain: KKRSSKKEASMKKVVRP

[3] = target: T3, CHRM1 peptide RKIPKRPGSVHRTPSRQ (SEQ ID NO:83) (not fully specified)
T3 chain: RKIPKRPGSVHRTPSRQ

[4] = target: T4, CREB1 peptide EILSRRPSYRKILND (SEQ ID NO:106) (not fully specified)
T4 chain: EILSRRPSYRKILND

[5] = target: T5, DGKI peptide NRKKKRTSFKRKA (SEQ ID NO:79) (not fully specified)
T5 chain: NRKKKRTSFKRKA

[6] = target: T6, FLJ20574 peptide GENVLKKSMKSRVKG (SEQ ID NO:113) (not fully specified)
T6 chain: GENVLKKSMKSRVKG

[7] = target: T7, LIMK2 peptide KATTKKRTLRKNDRK (SEQ ID NO:108) (not fully specified)
T7 chain: KATTKKRTLRKNDRK

[8] = target: T8, M1 muscarinic receptor peptide RWDKRRWRKIPKRPGSVHRT (SEQ ID NO:155) (not fully specified)
T8 chain: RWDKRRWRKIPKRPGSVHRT

[9] = target: T9, … peptide KKPFKLSGLSFKRNRKE (SEQ ID NO:88) (not fully specified)
T9 chain: KKPFKLSGLSFKRNRKE

[10] = target: T10, MARCKS peptide KKKKKRFSFKKSFKL (SEQ ID NO:80) (not fully specified)
T10 chain: KKKKKRFSFKKSFKL

[11] = target: T11, MARCKS peptide KKKRFSFKKSFKLSGFSFKK (SEQ ID NO:111) (not fully specified)
T11 chain: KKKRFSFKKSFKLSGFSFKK

[12] = target: T12, MLK3 peptide QQVDRERPHVRRRRGTFKRS (SEQ ID NO:128) (not fully specified)
T12 chain: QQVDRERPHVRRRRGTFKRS

[13] = target: T13, MacMARCKS peptide KKKFSFKKPFKLSGLSFKRN (SEQ ID NO:162) (not fully specified)
T13 chain: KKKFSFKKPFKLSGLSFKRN

[14] = target: T14, NIK peptide WKGKRRSKARKKRK (SEQ ID NO:131) (not fully specified)
T14 chain: WKGKRRSKARKKRK

[15] = target: T15, NR4A3 peptide KEVVRTDSLKGRRGR (SEQ ID NO:109) (not fully specified)
T15 chain: KEVVRTDSLKGRRGR

[16] = target: T16, PARIS1 peptide EYLERRASRRRAV (SEQ ID NO:130) (not fully specified)
T16 chain: EYLERRASRRRAV

[17] = target: T17, PARIS1 peptide EYLERRASRRRAV (SEQ ID NO:138) (not fully specified)
T17 chain: EYLERRASRRRAV

[18] = target: T18, PLEC1 peptide KRERKTSSKSSVRKRR (SEQ ID NO:81) (not fully specified)
T18 chain: KRERKTSSKSSVRKRR

[19] = target: T19, PRKCA peptide RFARKGSLRQKNV (SEQ ID NO:85) (not fully specified)
T19 chain: RFARKGSLRQKNV

[20] = target: T20, PRKCM peptide VHYTSKDTLRKRHYWR (SEQ ID NO:91) (not fully specified)
T20 chain: VHYTSKDTLRKRHYWR

[21] = target: T21, SMARCA5 peptide MAQIERGEARIQRRISIKKA (SEQ ID NO:166) (not fully specified)
T21 chain: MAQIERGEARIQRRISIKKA

[22] = target: T22, SPTBN4 peptide EGGDRRASGRRK (SEQ ID NO:110) (not fully specified)
T22 chain: EGGDRRASGRRK

[23] = target: T23, Urotensin-2 receptor peptide LYARLARAYRRSQRASFKRA (SEQ ID NO:159) (not fully specified)
T23 chain: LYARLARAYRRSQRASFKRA

[24] = target: T24, beta adducin peptide KKKFRTPSFLKKSKK (SEQ ID NO:135) (not fully specified)
T24 chain: KKKFRTPSFLKKSKK

[25] = target: T25, calcium channel, voltage-dependent, L type, alpha peptide RDIRQSPKRGFLRSASLGRR (SEQ ID NO:147) (not fully specified)
T25 chain: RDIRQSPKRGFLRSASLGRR

[26] = target: T26, dag kinase iota peptide NRKKKRTSFKRKA (SEQ ID NO:115) (not fully specified)
T26 chain: NRKKKRTSFKRKA

[27] = target: T27, dag kinase zeta peptide KKKKRASFKRKSSKKG (SEQ ID NO:114) (not fully specified)
T27 chain: KKKKRASFKRKSSKKG

[28] = target: T28, kinesin 3C peptide LEKRGMLGKRPRRKSSRRKK (SEQ ID NO:133) (not fully specified)
T28 chain: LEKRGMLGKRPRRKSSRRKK

[29] = target: T29, p47phox peptide QAQRQIKRGAPPRRSSIRNA (SEQ ID NO:146) (not fully specified)
T29 chain: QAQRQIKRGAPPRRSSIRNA

[30] = target: T30, pkc-zeta peptide GLPAPGEDKSIYRRGSRRWR (SEQ ID NO:167) (not fully specified)
T30 chain: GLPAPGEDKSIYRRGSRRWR

B1: PKC-epsilon (protein)
chain: MVVFNGLLKIKICEAVSLKPTAWSLRHAVGPRPQTFLLDPYIALNVDDSRIGQTATKQKTNSPAWHDEFVTDVCNGRKIELAVFHDAPIGYDDFVANCTIQFEELLQNGSRHFEDWIDLEPEGRVYVIIDLSGSSGEAPKDNEERVFRERMRPRKRQGAVRRRVHQVNGHKFMATYLRQPTYCSHCRDFIWGVIGKQGYQCQVCTCVVHKRCHELIITKCAGLKKQETPDQVGSQRFSVNMPHKFGIHNYKVPTFCDHCGSLLWGLLRQGLQCKVCKMNVHRRCETNVAPNCGVDARGIAKVLADLGVTPDKITNSGQRRKKLIAGAESPQPASGSSPSEEDRSKSAPTSPCDQEIKELENNIRKALSFDNRGEEHRAASSPDGQLMSPGENGEVRQGQAKRLGLDEFNFIKVLGKGSFGKVMLAELKGKDEVYAVKVLKKDVILQDDDVDCTMTEKRILALARKHPYLTQLYCCFQTKDRLFFVMEYVNGGDLMFQIQRSRKFDEPRSRFYAAEVTSALMFLHQHGVIYRDLKLDNILLDAEGHCKLADFGMCKEGILNGVTTTTFCGTPDYIAPEILQELEYGPSVDWWALGVLMYEMMAGQPPFEADNEDDLFESILHDDVLYPVWLSKEAVSILKAFMTKNPHKRLGCVASQNGEDAIKQHPFFKEIDWVLLEQKKIKPPFKPRIKTKRDVNNFDQDFTREEPVLTLVDEAIVKQINQEEFKGFSYFGEDLMP
- in vitro phosphorylation (% of best substrate) [1]: 31
- in vitro phosphorylation (% of best substrate) [2]: 16
- in vitro phosphorylation (% of best substrate) [3]: 47
- in vitro phosphorylation (% of best substrate) [4]: 31
- in vitro phosphorylation (% of best substrate) [5]: 92
- in vitro phosphorylation (% of best substrate) [6]: 10
- in vitro phosphorylation (% of best substrate) [7]: 8
- in vitro phosphorylation, 1 uM peptide (% of best substrate) [8]: 26
- in vitro phosphorylation (% of best substrate) [9]: 44
- in vitro phosphorylation (% of best substrate) [10]: 71
- in vitro phosphorylation (% of best substrate) [11]: 12
- in vitro phosphorylation, 1 uM peptide (% of best substrate) [12]: 32
- in vitro phosphorylation, 1 uM peptide (% of best substrate) [13]: 19
- in vitro phosphorylation, 1 uM peptide (% of best substrate) [14]: 43
- in vitro phosphorylation (% of best substrate) [15]: 26
- in vitro phosphorylation, 1 uM peptide (% of best substrate) [16]: 46
- in vitro phosphorylation, 1 uM peptide (% of best substrate) [17]: 27
- in vitro phosphorylation (% of best substrate) [18]: 59
- in vitro phosphorylation (% of best substrate) [19]: 86
- in vitro phosphorylation (% of best substrate) [20]: 49
- in vitro phosphorylation, 1 uM peptide (% of best substrate) [21]: 10
- in vitro phosphorylation (% of best substrate) [22]: 4
- in vitro phosphorylation, 1 uM peptide (% of best substrate) [23]: 25
- in vitro phosphorylation, 1 uM peptide (% of best substrate) [24]: 27
- in vitro phosphorylation, 1 uM peptide (% of best substrate) [25]: 26
- in vitro phosphorylation, 1 uM peptide (% of best substrate) [26]: 91
- in vitro phosphorylation, 1 uM peptide (% of best substrate) [27]: 100
- in vitro phosphorylation, 1 uM peptide (% of best substrate) [28]: 31
- in vitro phosphorylation, 1 uM peptide (% of best substrate) [29]: 28
- in vitro phosphorylation, 1 uM peptide (% of best substrate) [30]: 6

B2: PKC-zeta (protein)
chain: MPSRTGPKMEGSGGRVRLKAHYGGDIFITSVDAATTFEELCEEVRDMCRLHQQHPLTLKWVDSEGDPCTVSSQMELEEAFRLARQCRDEGLIIHVFPSTPEQPGLPCPGEDKSIYRRGARRWRKLYRANGHLFQAKRFNRRAYCGQCSERIWGLARQGYRCINCKLLVHKRCHGLVPLTCRKHMDSVMPSQEPPVDDKNEDADLPSEETDGIAYISSSRKHDSIKDDSEDLKPVIDGMDGIKISQGLGLQDFDLIRVIGRGSYAKVLLVRLKKNDQIYAMKVVKKELVHDDEDIDWVQTEKHVFEQASSNPFLVGLHSCFQTTSRLFLVIEYVNGGDLMFHMQRQRKLPEEHARFYAAEICIALNFLHERGIIYRDLKLDNVLLDADGHIKLTDYGMCKEGLGPGDTTSTFCGTPNYIAPEILRGEEYGFSVDWWALGVLMFEMMAGRSPFDIITDNPDMNTEDYLFQVILEKPIRIPRFLSVKASHVLKGFLNKDPKERLGCRPQTGFSDIKSHAFFRSIDWDLLEKKQALPPFQPQITDDYGLDNFDTQFTSEPVQLTPDDEDAIKRIDQSEFEGFEYINPLLLSTEESV
- in vitro phosphorylation (% of best substrate) [1]: 5
- in vitro phosphorylation (% of best substrate) [2]: 1
- in vitro phosphorylation (% of best substrate) [3]: 4
- in vitro phosphorylation (% of best substrate) [4]: 15
- in vitro phosphorylation (% of best substrate) [5]: 18
- in vitro phosphorylation (% of best substrate) [6]: 1
- in vitro phosphorylation (% of best substrate) [7]: 1
- in vitro phosphorylation, 1 uM peptide (% of best substrate) [8]: 19
- in vitro phosphorylation, 10 uM peptide (% of best substrate) [8]: 6
- in vitro phosphorylation (% of best substrate) [9]: 4
- in vitro phosphorylation (% of best substrate) [10]: 16
- in vitro phosphorylation (% of best substrate) [11]: 9
- in vitro phosphorylation, 1 uM peptide (% of best substrate) [12]: 14
- in vitro phosphorylation, 10 uM peptide (% of best substrate) [12]: 9
- in vitro phosphorylation, 1 uM peptide (% of best substrate) [13]: 7
- in vitro phosphorylation, 10 uM peptide (% of best substrate) [13]: 4
- in vitro phosphorylation, 1 uM peptide (% of best substrate) [14]: 7
- in vitro phosphorylation, 10 uM peptide (% of best substrate) [14]: 6
- in vitro phosphorylation (% of best substrate) [15]: 2
- in vitro phosphorylation, 1 uM peptide (% of best substrate) [16]: 36
- in vitro phosphorylation, 10 uM peptide (% of best substrate) [16]: 39
- in vitro phosphorylation, 1 uM peptide (% of best substrate) [17]: 31
- in vitro phosphorylation, 10 uM peptide (% of best substrate) [17]: 61
- in vitro phosphorylation (% of best substrate) [18]: 10
- in vitro phosphorylation (% of best substrate) [19]: 56
- in vitro phosphorylation (% of best substrate) [20]: 12
- in vitro phosphorylation, 1 uM peptide (% of best substrate) [21]: 2
- in vitro phosphorylation, 10 uM peptide (% of best substrate) [21]: 9
- in vitro phosphorylation (% of best substrate) [22]: 3
- in vitro phosphorylation, 1 uM peptide (% of best substrate) [23]: 25
- in vitro phosphorylation, 10 uM peptide (% of best substrate) [23]: 41
- in vitro phosphorylation, 1 uM peptide (% of best substrate) [24]: 11
- in vitro phosphorylation, 10 uM peptide (% of best substrate) [24]: 13
- in vitro phosphorylation, 1 uM peptide (% of best substrate) [25]: 28
- in vitro phosphorylation, 10 uM peptide (% of best substrate) [25]: 34
- in vitro phosphorylation, 1 uM peptide (% of best substrate) [26]: 11
- in vitro phosphorylation, 10 uM peptide (% of best substrate) [26]: 10
- in vitro phosphorylation, 1 uM peptide (% of best substrate) [27]: 45
- in vitro phosphorylation, 10 uM peptide (% of best substrate) [27]: 51
- in vitro phosphorylation, 1 uM peptide (% of best substrate) [28]: 27
- in vitro phosphorylation, 10 uM peptide (% of best substrate) [28]: 30
- in vitro phosphorylation, 1 uM peptide (% of best substrate) [29]: 32
- in vitro phosphorylation, 10 uM peptide (% of best substrate) [29]: 56
- in vitro phosphorylation, 1 uM peptide (% of best substrate) [30]: 5
- in vitro phosphorylation, 10 uM peptide (% of best substrate) [30]: 37
